Experiments:
[1] = molecular target: T1, Lys(Dnp)-ATNATPKPRIVGG-Lys(Abz)
T1 chain: KATNATPKPRIVGGK

[2] = molecular target: T2, Lys(Dnp)-ATNATAFPRIVGG-Lys(Abz)
T2 chain: KATNATAFPRIVGGK

[3] = molecular target: T3, Lys(Dnp)-ATNATLTPRIVGG-Lys(Abz)
T3 chain: KATNATLTPRIVGGK

[4] = molecular target: T4, Lys(Dnp)-ATNATIQPRIVGG-Lys(Abz)
T4 chain: KATNATIQPRIVGGK

[5] = molecular target: T5, Lys(Dnp)-ATNATMVPRIVGG-Lys(Abz)
T5 chain: KATNATMVPRIVGGK

[6] = molecular target: T6, Lys(Dnp)-ATNATMRPRIVGG-Lys(Abz)
T6 chain: KATNATMRPRIVGGK

[7] = molecular target: T7, Lys(Dnp)-ATNATIHPRIVGG-Lys(Abz)
T7 chain: KATNATIHPRIVGGK

[8] = molecular target: T8, Lys(Dnp)-ATNATRPPRIVGG-Lys(Abz)
T8 chain: KATNATRPPRIVGGK

[9] = molecular target: T9, Lys(Dnp)-ATNATVSPRIVGG-Lys(Abz)
T9 chain: KATNATVSPRIVGGK

[10] = molecular target: T10, Lys(Dnp)-ATNATWRPRIVGG-Lys(Abz)
T10 chain: KATNATWRPRIVGGK

[11] = molecular target: T11, Lys(Dnp)-ATNATWSPRIVGG-Lys(Abz)
T11 chain: KATNATWSPRIVGGK

[12] = molecular target: T12, Lys(Dnp)-ATNATFWPRIVGG-Lys(Abz)
T12 chain: KATNATFWPRIVGGK

[13] = molecular target: T13, Lys(Dnp)-ATNATLYPRIVGG-Lys(Abz)
T13 chain: KATNATLYPRIVGGK

[14] = molecular target: T14, Lys(Dnp)-ATNATWTPRIVGG-Lys(Abz)
T14 chain: KATNATWTPRIVGGK

[15] = molecular target: T15, Lys(Dnp)-ATNATVAPRIVGG-Lys(Abz)
T15 chain: KATNATVAPRIVGGK

[16] = molecular target: T16, Lys(Dnp)-ATNATVNPRIVGG-Lys(Abz)
T16 chain: KATNATVNPRIVGGK

[17] = molecular target: T17, Lys(Dnp)-ATNATEYPRIVGG-Lys(Abz)
T17 chain: KATNATEYPRIVGGK

[18] = molecular target: T18, Lys(Dnp)-ATNATDQPRIVGG-Lys(Abz)
T18 chain: KATNATDQPRIVGGK

[19] = molecular target: T19, Lys(Dnp)-ATNATASPRIVGG-Lys(Abz)
T19 chain: KATNATASPRIVGGK

[20] = molecular target: T20, Lys(Dnp)-ATNATHMPRIVGG-Lys(Abz)
T20 chain: KATNATHMPRIVGGK

[21] = molecular target: T21, Lys(Dnp)-ATNATNWPRIVGG-Lys(Abz)
T21 chain: KATNATNWPRIVGGK

[22] = molecular target: T22, Lys(Dnp)-ATNATWNPRIVGG-Lys(Abz)
T22 chain: KATNATWNPRIVGGK

[23] = molecular target: T23, Lys(Dnp)-ATNATELPRIVGG-Lys(Abz)
T23 chain: KATNATELPRIVGGK

[24] = molecular target: T24, Lys(Dnp)-ATNATHIPRIVGG-Lys(Abz)
T24 chain: KATNATHIPRIVGGK

[25] = molecular target: T25, Lys(Dnp)-ATNATKVPRIVGG-Lys(Abz)
T25 chain: KATNATKVPRIVGGK

[26] = molecular target: T26, Lys(Dnp)-ATNATHVPRIVGG-Lys(Abz)
T26 chain: KATNATHVPRIVGGK

[27] = molecular target: T27, Lys(Dnp)-ATNATPRPRIVGG-Lys(Abz)
T27 chain: KATNATPRPRIVGGK

[28] = molecular target: T28, Lys(Dnp)-ATNATYHPRIVGG-Lys(Abz)
T28 chain: KATNATYHPRIVGGK

[29] = molecular target: T29, Lys(Dnp)-ATNATYFPRIVGG-Lys(Abz)
T29 chain: KATNATYFPRIVGGK

[30] = molecular target: T30, Lys(Dnp)-ATNATPDPRIVGG-Lys(Abz)
T30 chain: KATNATPDPRIVGGK

[31] = molecular target: T31, Lys(Dnp)-ATNATKIPRIVGG-Lys(Abz)
T31 chain: KATNATKIPRIVGGK

[32] = molecular target: T32, Lys(Dnp)-ATNATNAPRIVGG-Lys(Abz)
T32 chain: KATNATNAPRIVGGK

[33] = molecular target: T33, Lys(Dnp)-ATNATRRPRIVGG-Lys(Abz)
T33 chain: KATNATRRPRIVGGK

[34] = molecular target: T34, Lys(Dnp)-ATNATGTPRIVGG-Lys(Abz)
T34 chain: KATNATGTPRIVGGK

[35] = molecular target: T35, Lys(Dnp)-ATNATIAPRIVGG-Lys(Abz)
T35 chain: KATNATIAPRIVGGK

[36] = molecular target: T36, Lys(Dnp)-ATNATIPPRIVGG-Lys(Abz)
T36 chain: KATNATIPPRIVGGK

[37] = molecular target: T37, Lys(Dnp)-ATNATDHPRIVGG-Lys(Abz)
T37 chain: KATNATDHPRIVGGK

[38] = molecular target: T38, Lys(Dnp)-ATNATMWPRIVGG-Lys(Abz)
T38 chain: KATNATMWPRIVGGK

[39] = molecular target: T39, Lys(Dnp)-ATNATMLPRIVGG-Lys(Abz)
T39 chain: KATNATMLPRIVGGK

[40] = molecular target: T40, Lys(Dnp)-ATNATQSPRIVGG-Lys(Abz)
T40 chain: KATNATQSPRIVGGK

[41] = molecular target: T41, Lys(Dnp)-ATNATDMPRIVGG-Lys(Abz)
T41 chain: KATNATDMPRIVGGK

B1: Human plasma purified Factor Xa (protein)
chain 1: ANSFLEEMKKGHLERECMEETCSYEEAREVFEDSDKTNEFWNKYKDGDQCETSPCQNQGKCKDGLGEYTCTCLEGFEGKNCELFTRKLCSLDNGDCDQFCHEEQNSVVCSCARGYTLADNGKACIPTGPYPCGKQTLER
chain 2: IVGGQECKDGECPWQALLINEENEGFCGGTILSEFYILTAAHCLYQAKRFKVRVGDRNTEQEEGGEAVHEVEVVIKHNRFTKETYDFDIAVLRLKTPITFRMNVAPACLPERDWAESTLMTQKTGIVSGFGRTHEKGRQSTRLKMLEVPYVDRNSCKLSSSFIITQNMFCAGYDTKQEDACQGDSGGPHVTRFKDTYFVTGIVSWGEGCARKGKYGIYTKVTAFLKWIDRSMKTRGLPKAKSHAPEVITSSPLK
For B1, the FXa kcat/KM [1] was 74 M⁻¹ s⁻¹, the FXa kcat/KM [2] was 22 M⁻¹ s⁻¹ and the FXa kcat/KM [3] was 540 M⁻¹ s⁻¹. For the same protein, the FXa kcat/KM [4] was 1700 M⁻¹ s⁻¹, the FXa kcat/KM [5] was 100 M⁻¹ s⁻¹ and the FXa kcat/KM [6] was 490 M⁻¹ s⁻¹. For the same protein, the FXa kcat/KM [7] was 810 M⁻¹ s⁻¹, the FXa kcat/KM [8] was 7 M⁻¹ s⁻¹ and the FXa kcat/KM [9] was 88 M⁻¹ s⁻¹. The FXa kcat/KM [10] was 800 M⁻¹ s⁻¹, the FXa kcat/KM [11] was 52 M⁻¹ s⁻¹ and the FXa kcat/KM [12] was 370 M⁻¹ s⁻¹. It also gave an FXa kcat/KM [13] of 160 M⁻¹ s⁻¹ and an FXa kcat/KM [14] of 46 M⁻¹ s⁻¹.

B2: Human plasma purified Factor Xa (Molecular Innovations, Inc) (protein)
chain 1: ANSFLEEMKKGHLERECMEETCSYEEAREVFEDSDKTNEFWNKYKDGDQCETSPCQNQGKCKDGLGEYTCTCLEGFEGKNCELFTRKLCSLDNGDCDQFCHEEQNSVVCSCARGYTLADNGKACIPTGPYPCGKQTLER
chain 2: IVGGQECKDGECPWQALLINEENEGFCGGTILSEFYILTAAHCLYQAKRFKVRVGDRNTEQEEGGEAVHEVEVVIKHNRFTKETYDFDIAVLRLKTPITFRMNVAPACLPERDWAESTLMTQKTGIVSGFGRTHEKGRQSTRLKMLEVPYVDRNSCKLSSSFIITQNMFCAGYDTKQEDACQGDSGGPHVTRFKDTYFVTGIVSWGEGCARKGKYGIYTKVTAFLKWIDRSMKTRGLPKAKSHAPEVITSSPLK
With B2 the FXa kcat/KM [15] was 62 M⁻¹ s⁻¹, the FXa kcat/KM [16] was 70 M⁻¹ s⁻¹ and the FXa kcat/KM [17] was 15 M⁻¹ s⁻¹. For the same protein, the FXa kcat/KM [18] was 2.2 M⁻¹ s⁻¹, the FXa kcat/KM [19] was 310 M⁻¹ s⁻¹ and the FXa kcat/KM [20] was 270 M⁻¹ s⁻¹. It also gave an FXa kcat/KM [21] of 86 M⁻¹ s⁻¹, an FXa kcat/KM [22] of 22 M⁻¹ s⁻¹ and an FXa kcat/KM [23] of 100 M⁻¹ s⁻¹. It also gave an FXa kcat/KM [24] of 78 M⁻¹ s⁻¹, an FXa kcat/KM [25] of 50 M⁻¹ s⁻¹ and an FXa kcat/KM [26] of 39 M⁻¹ s⁻¹. The FXa kcat/KM [27] was 500 M⁻¹ s⁻¹, the FXa kcat/KM [28] was 43 M⁻¹ s⁻¹ and the FXa kcat/KM [29] was 34 M⁻¹ s⁻¹. For the same protein, the FXa kcat/KM [30] was 790 M⁻¹ s⁻¹, the FXa kcat/KM [31] was 62 M⁻¹ s⁻¹ and the FXa kcat/KM [32] was 17 M⁻¹ s⁻¹. The FXa kcat/KM [33] was 900 M⁻¹ s⁻¹, the FXa kcat/KM [34] was 59 M⁻¹ s⁻¹ and the FXa kcat/KM [35] was 650 M⁻¹ s⁻¹. It also gave an FXa kcat/KM [36] of 8.5 M⁻¹ s⁻¹, an FXa kcat/KM [37] of 5 M⁻¹ s⁻¹ and an FXa kcat/KM [38] of 630 M⁻¹ s⁻¹. It also gave an FXa kcat/KM [39] of 530 M⁻¹ s⁻¹, an FXa kcat/KM [40] of 950 M⁻¹ s⁻¹ and an FXa kcat/KM [41] of 11 M⁻¹ s⁻¹.

— US20160024487
